Assay results reported in paper PMC4500099.

Biological target: Mercuric ion reductase (MerA) from Metallosphaera sedula (Metallosphaera sedula)
Test: crystal structure; hanging drop; 0.085M TRIS (pH 8.5), 15% v/v glycerol, 14% w/v PEG400, 0.19M LiSO4, 20 mg/mL protein; data collected at 100 K; bound FAD; space group P22(1)2(1), two monomers per asymmetric unit

## Mercuric ion reductase (MerA) from Metallosphaera sedula (enzyme)
  stoichiometry N: 2
